Results as given in patent US20240059789A1 (Janssen / Centocor, published 2024).

Legend:
[1] = target: Human CD3 on T cells / Jurkat cells (human, UniProt P07766 23-207); test: cell-based or functional assay
[2] = target: Human PSMA on prostate cancer cell lines (C4-2B, 22RV1) (human, UniProt Q04609 1-750); test: cell-based or functional assay
Human PSMA on prostate cancer cell lines (C4-2B, 22RV1), sequence (Q04609 whole entry): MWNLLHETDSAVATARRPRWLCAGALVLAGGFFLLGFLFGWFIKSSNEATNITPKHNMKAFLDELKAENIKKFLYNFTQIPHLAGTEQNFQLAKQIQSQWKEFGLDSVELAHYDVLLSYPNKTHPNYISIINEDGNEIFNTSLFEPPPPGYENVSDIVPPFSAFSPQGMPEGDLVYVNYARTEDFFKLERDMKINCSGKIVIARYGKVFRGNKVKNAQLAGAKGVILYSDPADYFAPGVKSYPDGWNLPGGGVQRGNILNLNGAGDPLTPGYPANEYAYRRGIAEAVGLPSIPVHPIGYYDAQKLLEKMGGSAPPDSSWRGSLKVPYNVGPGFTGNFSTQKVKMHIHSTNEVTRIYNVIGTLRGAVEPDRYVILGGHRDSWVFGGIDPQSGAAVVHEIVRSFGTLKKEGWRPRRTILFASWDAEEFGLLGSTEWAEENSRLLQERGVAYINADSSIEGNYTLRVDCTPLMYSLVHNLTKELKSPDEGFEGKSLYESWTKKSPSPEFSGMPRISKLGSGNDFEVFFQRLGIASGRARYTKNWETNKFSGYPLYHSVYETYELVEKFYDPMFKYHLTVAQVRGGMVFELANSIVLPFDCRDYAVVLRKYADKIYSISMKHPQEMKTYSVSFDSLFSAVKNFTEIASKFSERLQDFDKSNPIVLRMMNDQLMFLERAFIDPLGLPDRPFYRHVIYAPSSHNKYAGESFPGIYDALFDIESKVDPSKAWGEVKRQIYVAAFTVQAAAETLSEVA

Human CD3 on T cells / Jurkat cells, sequence (P07766 23-207 limits assumed): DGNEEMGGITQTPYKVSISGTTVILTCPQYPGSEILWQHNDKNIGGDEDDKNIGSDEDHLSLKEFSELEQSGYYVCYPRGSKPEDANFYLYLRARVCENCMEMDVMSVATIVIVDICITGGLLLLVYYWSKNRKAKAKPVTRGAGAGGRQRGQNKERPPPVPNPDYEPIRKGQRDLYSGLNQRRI

Binder | T cell activation EC50 [M] (CD25+ T cells, C4-2B co-culture, 72 h) [1] | Tumor killing EC50 [M] (C4-2B + PAN-T cells, 72 h, flow cytometry) [2]
PS3B928 (bispecific antibody, human IgG1, kappa, lambda, L234A L235A) heavy 1: EVQLVESGGGLVKPGGSLRLSCAASGFTFSRYNMNWVRQAPGKGLEWVSSISTSSNYIYYADSVKGRFTFSRDNAKNSLDLQMSGLRAEDTAIYYCTRGWGPFDYWGQGTLVTVSSASTKGPSVFPLAPSSKSTSGGTAALGCLVKDYFPEPVTVSWNSGALTSGVHTFPAVLQSSGLYSLSSVVTVPSSSLGTQTYICNVNHKPSNTKVDKKVEPKSCDKTHTCPPCPAPEAAGGPSVFLFPPKPKDTLMISRTPEVTCVVVSVSHEDPEVKFNWYVDGVEVHNAKTKPREEQYNSTYRVVSVLTVLHQDWLNGKEYKCKVSNKALPAPIEKTISKAKGQPREPQVYTLPPSREEMTKNQVSLTCLVKGFYPSDIAVEWESNGQPENNYKTTPPVLDSDGSFLLYSKLTVDKSRWQQGNVFSCSVMHEALHNHYTQKSLSLSP light 1: DIQMTQSPSSLSASVGDRVTITCRARQSIGTAIHWYQQKPGKAPKLLIKYASESISGVPSRFSGSGSGTDFTLTISSLQPEDFATYYCQQSGSWPYTFGQGTKLEIKRTVAAPSVFIFPPSDEQLKSGTASVVCLLNNFYPREAKVQWKVDNALQSGNSQESVTEQDSKDSTYSLSSTLTLSKADYEKHKVYACEVTHQGLSSPVTKSFNRGEC heavy 2: not shown light 2: not shown | 1.84e-10 | 4.81e-10
PS3B926 (bispecific antibody, human IgG1, kappa, lambda, L234A L235A) heavy 1: EVQLVESGGGLVKPGGSLRLSCAASGFTFSRYNMNWVRQAPGKGLEWVSSISTSSNYIYYADSVKGRFTFSRDNAKNSLDLQMSGLRAEDTAIYYCTRGWGPFDYWGQGTLVTVSSASTKGPSVFPLAPSSKSTSGGTAALGCLVKDYFPEPVTVSWNSGALTSGVHTFPAVLQSSGLYSLSSVVTVPSSSLGTQTYICNVNHKPSNTKVDKKVEPKSCDKTHTCPPCPAPEAAGGPSVFLFPPKPKDTLMISRTPEVTCVVVSVSHEDPEVKFNWYVDGVEVHNAKTKPREEQYNSTYRVVSVLTVLHQDWLNGKEYKCKVSNKALPAPIEKTISKAKGQPREPQVYTLPPSREEMTKNQVSLTCLVKGFYPSDIAVEWESNGQPENNYKTTPPVLDSDGSFLLYSKLTVDKSRWQQGNVFSCSVMHEALHNHYTQKSLSLSP light 1: DIQMTQSPSSLSASVGDRVTITCRARQSIGTAIHWYQQKPGKAPKLLIKYASESISGVPSRFSGSGSGTDFTLTISSLQPEDFATYYCQQSGSWPYTFGQGTKLEIKRTVAAPSVFIFPPSDEQLKSGTASVVCLLNNFYPREAKVQWKVDNALQSGNSQESVTEQDSKDSTYSLSSTLTLSKADYEKHKVYACEVTHQGLSSPVTKSFNRGEC heavy 2: not shown light 2: not shown | 3.45e-11 | 4.78e-11
PS3B918 (bispecific antibody, human IgG1, lambda, L234A L235A) heavy 1: QVQLQQSGPRLVRPSQTLSLTCAISGDSVFNNNAAWSWIRQSPSRGLEWLGRTYYRSKWLYDYAVSVKSRITVNPDTSRNQFTLQLNSVTPEDTALYYCARGYSSSFDYWGQGTLVTVSSASTKGPSVFPLAPSSKSTSGGTAALGCLVKDYFPEPVTVSWNSGALTSGVHTFPAVLQSSGLYSLSSVVTVPSSSLGTQTYICNVNHKPSNTKVDKKVEPKSCDKTHTCPPCPAPEAAGGPSVFLFPPKPKDTLMISRTPEVTCVVVSVSHEDPEVKFNWYVDGVEVHNAKTKPREEQYNSTYRVVSVLTVLHQDWLNGKEYKCKVSNKALPAPIEKTISKAKGQPREPQVYTLPPSREEMTKNQVSLTCLVKGFYPSDIAVEWESNGQPENNYKTTPPVLDSDGSFLLYSKLTVDKSRWQQGNVFSCSVMHEALHNHYTQKSLSLSPG light 1: QSALTQPASVSGSPGQSITISCTGTSSNIGTYKFVSWYQQHPDKAPKVLLYEVSKRPSGVSSRFSGSKSGNTASLTISGLQAEDQADYHCVSYAGSGTLLFGGGTKLTVLGQPKAAPSVTLFPPSSEELQANKATLVCLISDFYPGAVTVAWKADSSPVKAGVETTTPSKQSNNKYAASSYLSLTPEQWKSHRSYSCQVTHEGSTVEKTVAPTECS heavy 2: EVQLVESGGGLVKPGGSLRLSCAASGFTFSRYNMNWVRQAPGKGLEWVSSINSNSRYIYYADSVKGRFTISRDSAKNSLYLQMNSLRAEDTAVYYCAKTMGDYYYYYGMDVWGQGTTVTVSSASTKGPSVFPLAPSSKSTSGGTAALGCLVKDYFPEPVTVSWNSGALTSGVHTFPAVLQSSGLYSLSSVVTVPSSSLGTQTYICNVNHKPSNTKVDKKVEPKSCDKTHTCPPCPAPEAAGGPSVFLFPPKPKDTLMISRTPEVTCVVVSVSHEDPEVKFNWYVDGVEVHNAKTKPREEQYNSTYRVVSVLTVLHQDWLNGKEYKCKVSNKALPAPIEKTISKAKGQPREPQVYTLPPSREEMTKNQVSLTCLVKGFYPSDIAVEWESNGQPENNYKTTPPVLDSDGSFFLYSRLTVDKSRWQQGNVFSCSVMHEALHNHYTQKSLSLSPG light 2: SSELTQPPSVSGAPGQRVTISCAGSLSNIGAGYDVHWYQQLPGTAPKLLIYGNINRLSGVPERFSGSKSGTSASLAITGLQAEDGADYYCQSYDSSLSSYVFGTGTKVTVLGQPKAAPSVTLFPPSSEELQANKATLVCLISDFYPGAVTVAWKADSSPVKAGVETTTPSKQSNNKYAASSYLSLTPEQWKSHRSYSCQVTHEGSTVEKTVAPTECS | 1e-08 | 1e-08

The next lines start with results.

T cell activation EC50 [M] (CD25+ T cells, C4-2B co-culture, 72 h) [1] | Binder | Tumor killing EC50 [M] (C4-2B + PAN-T cells, 72 h, flow cytometry) [2]
1e-08 | PS3B931 (bispecific antibody, human IgG1, kappa, lambda, L234A L235A) heavy 1: EVQLVESGGGLVKPGGSLRLSCAASGFTFSRYNMNWVRQAPGKGLEWVSSISTSSNYIYYADSVKGRFTFSRDNAKNSLDLQMSGLRAEDTAIYYCTRGWGPFDYWGQGTLVTVSSASTKGPSVFPLAPSSKSTSGGTAALGCLVKDYFPEPVTVSWNSGALTSGVHTFPAVLQSSGLYSLSSVVTVPSSSLGTQTYICNVNHKPSNTKVDKKVEPKSCDKTHTCPPCPAPEAAGGPSVFLFPPKPKDTLMISRTPEVTCVVVSVSHEDPEVKFNWYVDGVEVHNAKTKPREEQYNSTYRVVSVLTVLHQDWLNGKEYKCKVSNKALPAPIEKTISKAKGQPREPQVYTLPPSREEMTKNQVSLTCLVKGFYPSDIAVEWESNGQPENNYKTTPPVLDSDGSFLLYSKLTVDKSRWQQGNVFSCSVMHEALHNHYTQKSLSLSP light 1: DIQMTQSPSSLSASVGDRVTITCRARQSIGTAIHWYQQKPGKAPKLLIKYASESISGVPSRFSGSGSGTDFTLTISSLQPEDFATYYCQQSGSWPYTFGQGTKLEIKRTVAAPSVFIFPPSDEQLKSGTASVVCLLNNFYPREAKVQWKVDNALQSGNSQESVTEQDSKDSTYSLSSTLTLSKADYEKHKVYACEVTHQGLSSPVTKSFNRGEC heavy 2: EVQLVESGGGLVKPGGSLRLSCAASGFTFSRYNMNWVRQAPGKGLEWVSSINSNSRYIYYADSVKGRFTISRDSAKNSLYLQMNSLRAEDTAVYYCAKTMGDYYYYYGMDVWGQGTTVTVSSASTKGPSVFPLAPSSKSTSGGTAALGCLVKDYFPEPVTVSWNSGALTSGVHTFPAVLQSSGLYSLSSVVTVPSSSLGTQTYICNVNHKPSNTKVDKKVEPKSCDKTHTCPPCPAPEAAGGPSVFLFPPKPKDTLMISRTPEVTCVVVSVSHEDPEVKFNWYVDGVEVHNAKTKPREEQYNSTYRVVSVLTVLHQDWLNGKEYKCKVSNKALPAPIEKTISKAKGQPREPQVYTLPPSREEMTKNQVSLTCLVKGFYPSDIAVEWESNGQPENNYKTTPPVLDSDGSFFLYSRLTVDKSRWQQGNVFSCSVMHEALHNHYTQKSLSLSPG light 2: SSELTQPPSVSGAPGQRVTISCAGSLSNIGAGYDVHWYQQLPGTAPKLLIYGNINRLSGVPERFSGSKSGTSASLAITGLQAEDGADYYCQSYDSSLSSYVFGTGTKVTVLGQPKAAPSVTLFPPSSEELQANKATLVCLISDFYPGAVTVAWKADSSPVKAGVETTTPSKQSNNKYAASSYLSLTPEQWKSHRSYSCQVTHEGSTVEKTVAPTECS | 1e-08
1.2e-11 | PS3B932 (bispecific antibody, human IgG1, kappa, lambda, L234A L235A) heavy 1: EVQLVESGGGLVKPGGSLRLSCAASGFTFSRYNMNWVRQAPGKGLEWVSSISTSSNYIYYADSVKGRFTFSRDNAKNSLDLQMSGLRAEDTAIYYCTRGWGPFDYWGQGTLVTVSSASTKGPSVFPLAPSSKSTSGGTAALGCLVKDYFPEPVTVSWNSGALTSGVHTFPAVLQSSGLYSLSSVVTVPSSSLGTQTYICNVNHKPSNTKVDKKVEPKSCDKTHTCPPCPAPEAAGGPSVFLFPPKPKDTLMISRTPEVTCVVVSVSHEDPEVKFNWYVDGVEVHNAKTKPREEQYNSTYRVVSVLTVLHQDWLNGKEYKCKVSNKALPAPIEKTISKAKGQPREPQVYTLPPSREEMTKNQVSLTCLVKGFYPSDIAVEWESNGQPENNYKTTPPVLDSDGSFLLYSKLTVDKSRWQQGNVFSCSVMHEALHNHYTQKSLSLSP light 1: DIQMTQSPSSLSASVGDRVTITCRARQSIGTAIHWYQQKPGKAPKLLIKYASESISGVPSRFSGSGSGTDFTLTISSLQPEDFATYYCQQSGSWPYTFGQGTKLEIKRTVAAPSVFIFPPSDEQLKSGTASVVCLLNNFYPREAKVQWKVDNALQSGNSQESVTEQDSKDSTYSLSSTLTLSKADYEKHKVYACEVTHQGLSSPVTKSFNRGEC heavy 2: EVQLVESGGGLVQPGGSLRLSCAASGFTFSSYAMSWVRQAPGKGLEWVSAISGGIGSTYYADSVKGRFTISRDNSKNTLWLQMNSLRAEDTAVYYCAKDGVGATPYYFDYWGQGTLVTVSSASTKGPSVFPLAPSSKSTSGGTAALGCLVKDYFPEPVTVSWNSGALTSGVHTFPAVLQSSGLYSLSSVVTVPSSSLGTQTYICNVNHKPSNTKVDKKVEPKSCDKTHTCPPCPAPEAAGGPSVFLFPPKPKDTLMISRTPEVTCVVVSVSHEDPEVKFNWYVDGVEVHNAKTKPREEQYNSTYRVVSVLTVLHQDWLNGKEYKCKVSNKALPAPIEKTISKAKGQPREPQVYTLPPSREEMTKNQVSLTCLVKGFYPSDIAVEWESNGQPENNYKTTPPVLDSDGSFFLYSRLTVDKSRWQQGNVFSCSVMHEALHNHYTQKSLSLSPG light 2: QSVLTQPPSVSAAPGQKVTISCSGSSSNIGNNYVSWYQQLPGTAPKLLIYDNNKRPSGIPDRFSGSKSGTSATLGITGLQTGDEADYYCGTWDSSLSAYVFGTGTKVTVLGQPKAAPSVTLFPPSSEELQANKATLVCLISDFYPGAVTVAWKADSSPVKAGVETTTPSKQSNNKYAASSYLSLTPEQWKSHRSYSCQVTHEGSTVEKTVAPTECS | 6.42e-12
